Source: the supplement of paper PMC10567573

B1: TPPP (parent)
chain: LCKDCQVIDGRNVTVTDVDIVFSK

Variants of: B1
Experiment: protein stability index of a GFP-peptide fusion (GPS, HEK-293T) (PSI 1-6); higher = more stable
Conditions: c terminus: a fixed tail appended
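Note: lentivirally expressed fusions sorted by FACS into six bins by GFP to DsRed ratio, PSI derived from sequencing read proportions per bin multiplied by bin number.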

Protein stability index of substitutions, site by site:
V15: Q 2.92 | R 3.44 | G 2.65 | W 2.22 | F 2.54 | K 2.89 | H 2.92 | L 2.28 | N 2.95 | Y 2.01 | E 3.64 | P 4.11 | C 2.62 | S 2.48 | T 2.96 | A 2.6 | M 1.97 | I 2.02 | D 3.04
T16: M 1.48 | I 3.14 | Y 1.3 | S 2.92 | H 2.44 | K 3.06 | G 2.01 | R 2.44 | A 2.23 | P 2.23 | N 2.59 | C 1.72 | Q 2.54 | D 3.37 | L 1.72 | W 1.24 | E 3.01
V21: L 2.54 | H 2.65 | I 1.87 | D 4 | K 3.22 | E 3.88 | G 3.28 | F 1.8 | C 2.53 | A 3.47
D17: T 1.69 | W 2.1 | A 2.33 | E 2.07 | Q 1.77 | R 2.92 | Y 2.97 | P 2.21 | V 2.65 | N 1.45 | G 2.14 | H 2.48 | L 3.14 | S 1.28 | I 3.91 | K 1.77 | M 2.29
I8: K 2.6 | L 2.24 | H 2.43 | N 2.35 | Q 3.14 | P 3.19 | S 2.79 | V 3.47 | M 2.81 | T 3.12 | D 3.97 | C 2.3 | G 2.54 | Y 2 | A 2.84 | E 3.21 | R 3.2 | W 1.83 | F 2.42
C5: P 4.03 | G 2.98 | Y 2.94 | V 3.36 | T 3.35 | Q 3.75 | A 3.62 | K 3.84 | F 2.54 | S 4.01 | R 3.38 | H 3.82 | M 2.77 | N 3.66 | E 4.32 | D 4.39 | W 2.28 | I 2.6 | L 3.16
V7: G 2.59 | P 2.96 | L 2.2 | W 3.61 | A 2.61 | C 2.4 | M 2.31 | E 2.94 | H 2.44 | N 2.61 | D 3.64 | Q 2.46 | F 2.33 | Y 1.53 | K 2.46 | S 3.05 | I 2.33 | R 2.8 | T 2.87
Q6: P 3.16 | S 2.61 | N 2.49 | K 2.16 | F 1.74 | G 2.78 | H 2.73 | E 2.9 | Y 2.4 | R 2.8 | W 2.17 | V 2.14 | T 2.7 | D 2.69 | A 2.05 | M 2.66 | C 2.09 | L 1.97
I20: G 3.35 | N 3.5 | H 2.91 | M 2.5 | A 3.04 | F 2.38 | E 3.92 | C 2.68 | S 2.55 | K 3.27 | T 3.06 | P 3.14 | R 3.22 | D 3.46 | W 1.98 | Q 3.79 | Y 2.63 | L 3.02
D4: R 2.73 | F 1.93 | I 2.02 | E 2.71 | C 2.35 | T 1.77 | K 2.31 | V 1.82 | Q 1.97 | A 1.76 | P 2.25 | G 2.42 | L 1.83 | N 1.69 | M 2.1 | Y 1.81 | H 1.57 | S 1.71
T14: I 2.76 | E 3.2 | G 3.05 | K 2.48 | W 2.52 | Q 2.7 | C 2.41 | A 2.81 | H 2.61 | M 1.6 | N 2.73 | D 2.68 | Y 2.15 | P 2.75 | R 2.4 | F 1.91 | V 1.72 | L 1.84 | S 2.83
D19: T 1.42 | M 2.28 | Y 1.47 | C 2.4 | K 1.39 | E 1.79 | A 2.77 | W 2.96 | L 2.26 | I 2.09 | R 1.36 | Q 1.65 | S 2.39 | P 2.56 | F 2.45 | V 1.95 | G 2.08 | N 2.13 | H 2.97
D9: F 1.9 | E 2.66 | N 2 | P 2.65 | W 1.84 | C 2.05 | T 2.99 | K 2.48 | S 2.45 | Y 2.27 | Q 2.76 | G 2.1 | A 1.96 | R 2.53 | L 2.48 | H 2.07 | I 1.66 | V 1.21 | M 2.19
N12: V 1.71 | C 2.17 | E 3.88 | S 1.98 | Y 2.66 | K 2.52 | R 2.23 | T 2.11 | H 2.65 | P 2.4 | G 2.48 | A 2.57 | M 1.73 | F 2.48 | I 1.53 | D 2.68 | Q 2.3 | L 2.57
V13: W 3.13 | P 3.08 | L 2.48 | F 2.08 | G 2.79 | D 3.04 | H 2.32 | C 2.16 | A 2.75 | N 2.6 | T 2.38 | Q 2.49 | K 2.36 | R 3.03 | S 3.12 | Y 2.37 | E 3.59 | M 2.54 | I 2.31
G10: Q 2.47 | Y 1.99 | S 2.74 | C 2.14 | V 2.34 | P 2.63 | I 1.3 | N 2.39 | E 2.55 | M 1.54 | A 2.31 | T 2.52 | R 2.51 | D 3.35 | K 2.88 | L 1.61 | W 2.33 | F 1.77 | H 2.8
R11: G 2.56 | F 1.91 | N 2.85 | I 1.68 | H 2.15 | M 2.16 | E 2.9 | A 2.54 | L 1.68 | W 1.78 | Q 2.35 | P 2.57 | D 3.54 | T 2.35 | V 2.05 | Y 1.55 | K 2.71 | C 2.35 | S 2.58
V18: L 2.4 | F 2.54 | N 3.79 | T 3.69 | C 2.48 | S 3.12 | Q 3.16 | G 3.11 | K 2.77 | D 3.58 | H 2.91 | E 3.52 | W 2.23 | P 2.73 | Y 2.6 | A 2.9 | R 3.06 | I 2.44 | M 1.92
K3: P 3.26 | Q 2.18 | Y 1.91 | M 1.78 | T 2.83 | S 2.17 | W 1.49 | N 2.95 | R 2.15
